# Measurements published in doi:10.1101/2022.11.07.515236 (bioRxiv, 2022).
# T1: Fc chimera of recombinant human type II BMP receptor BMPRII (human, UniProt Q13873)
# T1 sequence: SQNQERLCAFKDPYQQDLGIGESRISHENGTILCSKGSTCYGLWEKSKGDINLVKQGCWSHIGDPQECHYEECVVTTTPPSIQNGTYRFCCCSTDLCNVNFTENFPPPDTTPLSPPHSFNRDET
# B1: recombinant human GDF3 (ligand)
# chain: AAIPVPKLSCKNLCHRHQLFINFRDLGWHKWIIAPKGFMANYCHGECPFSLTISLNSSNYAFMQALMHAVDPEIPQAVCIPTKLSPISMLYQDNNDNVILRHYEDMVVDECGCG
# B2: recombinant mouse GDF3 (ligand)
# chain: AAISVPKGFCRNFCHRHQLFINFQDLGWHKWVIAPKGFMANYCHGECPFSMTTYLNSSNYAFMQALMHMADPKVPKAVCVPTKLSPISMLYQDSDKNVILRHYEDMVVDECGCG
# What was measured:
# [1] = target: T1, Fc chimera of recombinant human type II …; assay: SPR
# [2] = target: T2, recombinant human ACTRIIA-Fc (human, UniProt P27037); assay: SPR
# T2 sequence (P27037 20-135): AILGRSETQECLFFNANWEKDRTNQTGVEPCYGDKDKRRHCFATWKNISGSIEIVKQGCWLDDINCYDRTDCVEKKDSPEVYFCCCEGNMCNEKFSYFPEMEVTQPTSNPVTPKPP
# [3] = target: T1, Fc chimera of recombinant human type II …; assay: BLI
# [4] = target: T2, recombinant human ACTRIIA-Fc; assay: BLI
Binder,binding result [1],binding result [2],binding result [3],binding result [4]
B1,binds,binds,,
B2,,,binds,binds
